Reference: patent publication US7268216B2, “Chimeric avidin mutants” (Licentia Oy, priority 2004, dated 2007)
Where two headings read alike, the source gives them in different places.

What was measured:
[1] = IAsys optical biosensor (SPR), 2-iminobiotin binding; details: 2-iminobiotin surface, 20° C., 50 mM borate buffer pH 9.5, 1 M NaCl
Experimental: The biotin-binding characteristics of the different avidins were studied by a surface plasmon resonance (SPR) optical biosensor (IAsys). The binding affinities to the 2-iminobiotin surface in 50 mM borate buffer (pH 9.5, 1 M NaCl) were measured as previously reported (7).

[2] = Microplate assay: remaining biotin-binding activity after heat treatment; assay type: physicochemical; details: 50 mM phosphate buffer, 100 mM NaCl, pH 7.0
Experimental: The inactivation of the proteins during heat-treatment was analysed by using a microplate assay (23). The proteins were heated to 99.9° C. in 50 mM phosphate buffer containing 100 mM NaCl (pH 7.0) for 32 minutes. The remaining activity was probed by measuring the ability of the proteins to bind biotinylated alkaline phosphatase by coating the microplate wells with samples of the heated proteins.

[3] = system: Proteinase K; test: Proteinase K assay (proteolytic resistance, SDS-PAGE); assay type: physicochemical; details: for digested after treatment with Proteinase K: 16 hours, 37° C., Proteinase K 1/25 w/w, without biotin; for cleavage by Proteinase K: proteins saturated with biotin before treatment
Experimental: The proteolytic resistance of the proteins were studied using proteolysis by Proteinase K, as previously described (7). Protein sample (4 μg) was incubated in the presence of Proteinase K ( 1/25 w/w) at 37° C. for a predetermined time period, denatured by boiling in sample buffer (SDS, 2-mercaptoethanol) and subjected to SDS-PAGE followed by coomassie staining.

[4] = Fluorescent biotin dissociation assay; assay type: binding
Experimental: The binding of labelled biotin to avidins was analysed by a method based on the quenching of a biotin-coupled fluorescent probe ArcDia BF560 (ArcDia Ltd., Turku, Finland) due to binding to avidin, as previously described (18). The measurements were performed using a PerkinElmer LS55 luminometer with thermostated cuvette (25 or 50° C.). The signal measured for 3600 sec (25° C.) or 2400 sec (50° C.) was used to determine the dissociation rate constant.

[5] = Differential scanning calorimetry (DSC), heat denaturation; assay type: physicochemical
Experimental: The transition midpoint of the heat denaturation (Tm) of the avidin proteins was studied using a Calorimetry Sciences Corporation (CSC) Nano II differential scanning calorimeter, as in previous reports (22,23). Proteins (˜0.5 mg/ml) were analyzed both in the absence and presence of biotin (3:1 molar ratio; biotin:avidin monomer).

[6] = Radiobiotin dissociation assay; assay type: binding; details: [3H]biotin, various temperatures
Experimental: The dissociation rate of [3H]biotin from avidin, AVR4/5 and the avidin mutants was determined as described in (20) at various temperatures. The activation thermodynamic parameters for AVR4/5(C122S) and avidin were determined by analysis of the dependence of the dissociation rate upon temperature using the global fit of all data, as described in (21).

[7] = cited from earlier work
[8] = system: Proteinase K; details: even without bound biotin; refs (8,32); cited from earlier work

AVD(I117Y): Avidin with mutation I117Y in 1-3 subunit interface, produced in baculovirus-infected insect cells
kass, association rate constant [1]: (2.3 ± 0.3) × 10^4 M^−1s^−1 | Activity: biotin-binding activity after 32 min treatment at 99.9° C. [2]: 47% | digested after treatment with Proteinase K [3]: 50% | cleavage by Proteinase K [3]: no cleavage was observed | Release 1 h (total release of the probe) ([4]; 25° C.): 3.0% | kdiss, dissociation rate constant ([4]; 25° C.): 0.81 10^−5 s^−1 | Release 1 h (total release of the probe) ([4]; 50° C.): 56.5% | kdiss, dissociation rate constant ([4]; 50° C.): 1.61 10^−4 s^−1 | Tm, transition midpoint of heat denaturation [5]: 97.5 °C | ΔTm, change in Tm upon addition of a three-fold molar excess of biotin ([5]; DSC): 26.2 °C | Tm(+biotin) ([5]; DSC, biotin 3:1 molar ratio biotin:avidin monomer): 123.7 ± 0.1 °C | ΔH (unfolding enthalpy) ([5]; DSC, sample without biotin): 128 ± 1.4 kcal/mol | Tm(−biotin) ([5]; DSC, without biotin, average ± S.D): 97.5 ± 0.4 °C | biotin binding / dissociation rate in radiobiotin dissociation assay [6]: very tight, avidin-like biotin binding

AVD: Chicken avidin obtained from Belovo S. A.; homotetrameric egg-white glycoprotein (SEQ ID NO:1) [reference compound]
kass, association rate constant [1]: (2.6 ± 0.2) × 10^4 M^−1s^−1 | Activity: biotin-binding activity after 32 min treatment at 99.9° C. [2]: 4% | ΔH (unfolding enthalpy) ([7]; DSC, sample without biotin, results from ref (8)): 78.6 ± 1.2 kcal/mol | Tm(+biotin) ([7]; DSC, with biotin, results from ref (8)): 117.0 ± 0.7 °C | Tm(−biotin) ([7]; DSC, without biotin, results from ref (8)): 83.5 ± 0.1 °C | ΔTm, change in Tm upon addition of a three-fold molar excess of biotin ([7]; DSC, results from ref (8)): 33.5 °C | Tm, transition midpoint of heat denaturation ([7]; from ref (8)): 83.5 °C | digested after treatment with Proteinase K [3]: 50% | cleavage by Proteinase K [3]: no cleavage was observed | Release 1 h (total release of the probe) ([4]; 25° C.): 10.7% | kdiss, dissociation rate constant ([4]; 25° C.): 2.04 10^−5 s^−1 | Release 1 h (total release of the probe) ([4]; 50° C.): 71.5% | kdiss, dissociation rate constant ([4]; 50° C.): 2.74 10^−4 s^−1

streptavidin: Bacterial analogue of avidin from Streptomyces avidinii
resistance to cleavage by Proteinase K [8]: resistant to cleavage
